Here are results for one molecule from publication PMC3534030 (2012).

The target of this experiment is EGFR (Homo sapiens, UniProt P00533). Briefly: 125I-EGF radioligand saturation binding on human bone marrow mesenchymal progenitor cells.

B1: EGF (protein)
chain: NSYPGCPSSYDGYCLNGGVCMHIESLDSYTCNCVIGYSGDRCQTRDLRWWELR
modifications: 125I-labeled EGF
Turning to B1, the affinity, expressed as Kd, was 0.0349 nM.

For orientation: Kd means the free concentration of one partner at which half of the binding sites on the other are occupied at equilibrium, for simple one-to-one binding.
